Assay: soluble on expression in E. coli; label from the status in PepcDB or PDB records

| Sequence | soluble on expression in E. coli |
| --- | --- |
| MYKLIAIDMDGTLLNDHHEVTEEVRDALHAAKAEGVKIVLCTGRPIGGVQRYLDELNLIEEGDYVIAYNGALVQNTHTNEVVSELSLGYDDLTSLYDLSLELKTPMHFFDSSNLYTPNRDISEFTVYESYVTQVPLHFRKIDEVPKDILIPKVMFIDKPENLSRVITSIPKDVREKYTMVRSAPFFYEILHSEASKGNAVRQLAQLLGIEQAEVMCIGDNGNDLTMIEWAGCGVAMANAIPEVLEAANFQTRSNNEHGVAHAIHELVLAKLEHHHHHH | soluble |
| MATFFLLSAGKAQDRIPACPPLGKTLKMIKPLREMNWANDTIAVQTSFPSAFRETGRDEIIDSIALLTPVFERLRQVRAGLSEDTVRILHIGDSHVRGHIYPQTTGTLLKETFGAVSYTDMGVNGATCLTFTHPGRIADIAAMKPELLILSFGTNESHNRRYNVNLHYNQMDELVKLLRDSLPDVPILLTTPPGSYESFRQRRRKRTYAINPRTVTAAETIRRYAKDHRLLVWDMYDVVGGKRRACTNWTEAKLMRPDHVHYLPEGYILQGNLLYQAIIQAYNDYVSH | not soluble |
| METNRPSPDALLVNLQEEADSSVGKLKIYFGFAAGVGKTYAMLSDAKDQLAAGVDVVAGYIEPHAREETLRMLEGIPIIPPKAINHKNIALKEFDLDEALKRKPELILVDELAHTNASGVRNKKRFQDVEELLQAGIDVYTTVNVQHIESLNDIVEGITKVAVRETIPDYVFDEADRVKLIDIEPDELLKRLEQGKIYQPARAKTAMQNFFTRENLKLLREIAMRKAADRI | not soluble |
| VLRSKSLCHDEIENLLDSDHRELIGDYSKAFLLQTVDGKHQDLKYISPETMVALLTGKFSNIVDKFVIVDCRYPYEYEGGHIKTAVNLPLERDAESFLLKSPIAPCSLDKRVILIFHCEFSSERGPRMCRFIRERDRAVNDYPSLYYPEMYILKGGYKEFFPQHPNFCEPQDYRPMNHEAFKDELKTFRLKTRSWAGERSRRELCSRLQDQ | soluble |
| SFFMGEKTFYHIKKENLILKARMFGKITSLGISGFVMQGTNCLVQIVCNKMLFMYGGDMYVGIMTVINSVREILSVPGSTLGSGAQPVLGYNYGAKQYERVRKA | not soluble |
| MSDPKQKSDDLPEQVEQPEQGGGNDGQEEDVQMAEVSEQELERVRTLLHRDWMYSFTPERVRRYHLNRSDYLNEEIRHSQRAIRNALLGYKHASNSRKTCRTDLLDTTWILENLELVGRQLPRESSSQGNPNQESVQELHRQICQLFEDDALAVCERGHNQEVALDLASQVIATHMRTIREFQEEYFKVTGKKHELKKLEDNAYGVLLTPSPKRMPKNFQRRRSDGDDDDDGPGNWGNLNPVAPV | soluble |
| MAHHHHHHMDPSAFGMMAGRGMGRQTEVRDARDTAETIQISSIALLKMLIHGRAGVPLEVMGLMIGEEIDDYTIRVADVFSMPQTATGQSVEAVDPEYQVHMLDKLKLVGRHENVVGWYHSHPGFGCWLSSEDVMTAAGYENLTPRSVSVVVDPIQSVRGKVVIDAFRTIPQEIMAMRAMGEYVEPRQVTSNIGFLSKPSAVALSHNLNRQYYNLPVTFRKKNHELRLLLNVYRKGWQEGFKLEKAKVYQRETRTSIRELISLSKQAEKYITQGRDEDDLGNVGQINAMSHLQMEAENVIHRNLNQSIGAMINAVVF | not soluble |
| MVGHVLYGWRDRPRRGEVDYPHTENIRMGHTWDSKRDVSKFDKSWSDQNIVDAIVATLENPDYALSGKVKRVVWKDIHGTTVRVSYNVCLMVGVISDRAYSDTPDRKAKRIVE | not soluble |
| REAFVSIQTSTIPKTAYAAVNFVETQGEDESYTDSLSTDNKRDIYADFAVIEIPLFLTNHRDYQVFNEFIKPAIETYKQLGNSSFEKKQLDQHKNDNFYMLGYPLVESSIDALILNQRRQYNNSYTEKYTPQTLTKDQRTIDLSREVPTLIQNKTENSTGSQLLVNQSLSSTSEGIIE | soluble |
| MSELYVAECNAAKARLEVETECRRIIADNYEKVLERAKEYSKKLEAPILAKICEVGYFCGAHVVRTNQVTMEMGANYYGECSIHTAEKILDRRVSEMRRQREEGLDSIRMLDDKIKFAQDNFSSVSIDGGPIEIVEKYDEEMEKLFYQNRKNKKMSQNDEQNEKIIEKNKLNGDQDHNDVMNRLEELEKLEQDNDEMEEAPIPKPFEVSNEDLQDLGKLEEVEEVEQDPTDKKLRFGMNERLLAQPGVTQKEMERLLDFLDTCDEESSDEEYDEDEEEGDDDEENLNNSVEELDSDDYASDDNIEKSNNSDQQLKSKKIETQVIKVEEIVEETVTKTTVKRKKSGVRFAQQLENVKTFHQTDTVEIKEEDSVIETKSILRSTEPTPVDRSALEPEQKELAAMSTMTFPGEIVEKNPYECEPSTSRDPAPVITEKKVSKFRASRHRN | not soluble |
| AMYEKPPVEKLIEELRQLKEKAYKGGGDERIQFQHSKGKLTARERLALLFDDGKFNEIMTFATTRATEFGLDKQRFYGDGVVTGWGKVDGRTVFAYAQDFTVLGGSLGETHANKIVRAYELALKVGAPVVGINDSGGARIQEGALSLEGYGAVFKMNVMASGVIPQITIMAGPAAGGAVYSPALTDFIIMIKGDAYYMFVTGPEITKVVLGEEVSFQDLGGAVVHATKSGVVHFMVDSEQEAINLTKRLLSYLPSNNMEEPPYIDTGDPADRDATGVEQIVPNDAAKPYNMREIIYKIVDNGEFLEVHKHWAQNIIVGFARIAGNVVGIVANNPEEFGGSIDIDAADKAARFIRFCDAFNIPLISLVDTPGYVPGTDQEYKGIIRHGAKMLYAFAEATVPKITVIVRKSYGGAHIAMSIKSLGADLVYAWPTAEIAVTGPEGAVRILYRKEIQQASNPDDVLKQRIAEYRKLFANPYWAAEKGLVDDVIEPKDTRRVIVAGLEMLKTKREYRYPKKHGNIPL | soluble |
| MGSDKIHHHHHHMNRAREINYLNSIALHQPFGIVGVSGETGIGKTTVLNFVNPEGVFTVRVNISLRDSMESILYDLLHSLALSLEKVEEVSDLAKEVRKWITDEVSTIKGFSLGVSFGVNASLTHEKSIRPRFNFFKAREKLGELIKQTVQRKGKFLLIIDELDKEKKEDVLRVIDSIKNFIIMEDFVVILSLPFSIYREYAADRLRWNEAGNLENIFTDIVFVEPLKKLEIKELIIKRLGSYIELIEDGVLDIVADFSDGNPRDGLWILTKAIYDNIHKELLSKEDLINTINRTISEYTGLTLNLTENQKKAIRVLRGSVYSREKIIETLQKEGFKRTTAYSVMDQLLQKRILLVEKEGYRISGKFSYMEI | not soluble |
| MSLSFRFAFRPYQRRLRQPLRTARDAQITVRLGIWLRLETDTEVRWGEIAPWPSFGSETLAEAIAFCEAFPPDPEWEDLATAPDSLPACQFGFGCLRESNATDFLPTSAVLLPAGAAALTAIATASPATTYKWKIGLDLESELDLLPQLDRLLPSAAKLRLDANGGLTKAQADRLLQVLTAINERRSGRIEWLEQPLDPSQVDDLLQLVQDWPLVAIALDESVSQLSSLQFWQAQGWPGLYVLKPAIAGWPQTVRQFCQVHHLPVVVSSMFESPIGWRAVAAIAAQLGRADQAQGLGTTAWFTDDWESKTAAALWQHPEGHHHHHH | not soluble |
| MGSDKIHHHHHHMISTEYRPKSLLEEFVVCFYFNKSDNFEYADYANPTTNQEMFFNLGDDFELKNSIGQVTSQRSWISGLQSKSLPIKCSGRHITAGVIFKPWGLYAAFGINAKELANKTIYSKWLCDLSNELDNSEFSESQFFDLMEFNLLKSIKRSKMTKVMQKIVNEIEQENVFTLSEKLNRSKKTIIESFNKMIGLSPHKFYTLKCICETITLLQNNPTIKLTELAYNQGFYDQAHFIRVFKEHTGLTPKEFRNSIMKR | not soluble |
| MASYYEILDVPRSASADDIKKAYRRKALQWHPDKNPDNKEFAEKKFKEVAEAYEVLSDKHKREIYDRYGREGLTGTGTGPSRAEAGSGGPGFTFTFRSPEEVFREFFGSGDPFAELFDDLGPFSELQNRGSRHSGPFFTFSSSFPGHSDFSSSSFSFSPGAGAFRSVSTSTTFVQGRRITTRRIMENGQERVEVEEDGQLKSVTINGVPDDLALGLELSRREQQPSVTSRSGGTQVQQTPASCPLDSDLSEDEDLQLAMAYSLSEMEAAGKKPAGGREAQHRRQGRPKAQHQDPGLGGTQEGARGEATKRSPSPEEKASRCLIL | soluble |
| AIANGTELRETLEDLIKEVVQASREALDTQGELNERNEAALRTLEAQWRQRLIEELHEQGSLRVVLCRTDLLVPGSGATGTTTTNRTDPLRYVYETLRQRDPRERRRSLPPERSSQSSELEDTGTDSGEALSSGDDDDEISQVAGQPEPETANYVLSQYERVLAPSTNKQRIWRVFLRDAMVHINGQDLLLNQLQCQFDW | soluble |
| MKLTILRLEHFSAQDQIDLGKIWPEYSASSLSVDETHRIYAARFNERLLGAVRVTLSGTQGALDSLRVREITRRRGVGQYLVEEVIRDNPNVSSWWMADVGVEDRSVMAAFMQALGFTAQHDGWEKR | not soluble |
| AQSVPWGISRVQAPAAHNRGLTGSGVKVAVLDTGISTHPDLNIRGGASFVPGEPSTQDGNGHGTHVAGTIAALNNSIGVLGVAPNAELYAVKVLGASGSGSVSSIAQGLEWAGNNGMHVANLSLGSPSPSATLEQAVNSATSRGVLVVAASGNSGAGSISYPARYANAMAVGATDQNNNRASFSQYGAGLDIVAPGVNVQSTYPGSTYASLNGTSMATPHVAGAAALVKQKNPSWSNVQIRNHLKNTATSLGSTNLYGSGLVNAEAATR | soluble |
| MSLTESARATVSLGFTAELFPPGTHMCYIYNDERERLEIMSEFVRSGIESGEKIAYFVEEMSPQALRDYLAGLGIVPTEEAQLEIAPSVDVYCPEGRFSPDRMLGRLRSAYEDGIREGFNGVRLTGEMHWALRGLPGSERLAEYESRINLLVVDCPLTVICQYDANHFDGATLFKILNAHPMMIVRGQVVHNPYYLSPEEYFARYPVPNVEGHHHHHH | soluble |
| MGSDKIHHHHHHMKIEINPVSRIEGHAKVTIFLDSSGKVENAFFQATEFRGYEKILSGLPMEEVPRVVSTICGICRAIHFTAALKAADQVFGVEASDAAKIVREMLLCAHFIEDHTLSLLALALPDFLSPEERNIFGVIRNLGELGRELLRKRGYAVRILQILGGRNIHPVTALPGGWAKAPTDEELGLIERYSRELLDLGYRMVEVLEAALDMGDGLELRAATLGTEKKGLVNLYDGEQVVKDEEGKEVLRFSGKEYADIITEKSLSWSYSKLTEIKPLGEKLYVVGPLARLKTAELTPKASEIVKTYGVSNNLLYNHFARAVEIIYAAERLLELSQSYRGGRIQNEPQKVAGEGVGIVEAPRGTLIHHYWTDEKGIVRGSNLIVATTHNVRAINHVVGKVAERASDTRNLAEKVEVAIRAFDPCMACATHAVNGVIPIEIQIFRDGELEEVYRNYEESCCGSGQSTHS | not soluble |
| MSKTTLVERCYKYIMSNEKNWSPYTVINRKSWVKNYIEPFFKDTKLIDINPVLIQTFINTTFNNCTFSSSKIRYRFISSVLKEAYRLREINENPCDFVKLPLEHHHHHH | soluble |
| MSLAQIDSLFVTRLYRAALSEHGPKIDPQEMEASCIAIAEDDEAGQDWCEENGYPGYTSYASLTDLPWRFPIFADLVKSLDAHVAAFAQDLELNLDGRDLKLEDLWINILPEGGTHASHIHPHSVISGTTYVSMPDGASALKLEDPRHAMMMAHPPRTKDCRRELRSFVYEAPNVGDVLLWESFIRHEVPMNMAEDERISVSFNYAWAEGHHHHHH | soluble |
| SDSSAVITQISKEEARGPLRGKGDQKSAASQKPRSRGILHSLFCCVCRDDGEALPAHSGAPLLVEENGAIPKQTPVQYLLPEAKAQDSDKICVVIDLDETLVHSSFKPVNNADFIIPVEIDGVVHQVYVLKRPHVDEFLQRMGELFECVLFTASLAKYADPVADLLDKWGAFRARLFRESCVFHRGNYVKDLSRLGRDLRRVLILDNSPASYVFHPDNAVPVASWFDNMSDTELHDLLPFFEQLSRVDDVYSVLRQPRPGS | soluble |
